We go through one molecule from PMC10328973.

The target of the assay is UKNP5.2.1 E2E1-I53-50A trimer (hepatitis C virus genotype 5, strain UKNP5.2.1).

B1: chimeric HEPC74 HC – VRC01 LC (antibody, V domains shown)
VH: QVQLVQSGAEVKKPGSSVKVSCTTSGGTYINYAISWVRQAPGQGLEWVGGMSPISNTPKYAQKFQGRVTITADESTSTTYMELSSLRPEDTAVYYCARDLLKYCGGGNCHSLLVDPWGQGTLVTVSS
VL: EIVLTQSPGTLSLSPGETAIISCRTSQYGSLAWYQQRPGQAPRLVIYSGSTRAAGIPDRFSGSRWGPDYNLTISNLESGDFGVYYCQQYEFFGQGTKVQVD
Molecule B1 had a neutralisation of UKNP5.2.1 HCVpp, IC50 (the only HCVpp neutralised) of 4.4 µg/mL.
